In the nanobody polyreactivity screen of Harvey et al. (2022):

Assay: yeast display, Sf9 membrane polyspecificity reagent, FACS + sequencing; frameworks hold sequencing errors
In short: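 In a synthetic yeast display library (Saccharomyces cerevisiae BJ5465), nanobody expression was induced with galactose for 36–48 hours. FACS gates were set low and high (top ~1%) using anti-HA fluorescence for expression and streptavidin fluorescence for binding of the Sf9 membrane reagent. Each polyreactivity label is drawn from the gate of origin.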

Sequence	polyreactivity (PSR sort gate)
QVQLVESGGGLVQAGGSLRLSCAASGSTFTIYDMGWSRQAPGKERELVASISQGAGSTYYADSVKGRFTISRDNAKNTVYLQMNSQKPEDTAVYYCAADWYQSYVFVYWEGEYWAQGTQVTVSS	high polyreactivity
QVQLVESGGGLVQAGGSLRLSCAASGSTFTIYVIGWYRTAPGKERELVAAINGGGRTNYADSVKGRFTISRDNAKNTVYLQMNSLKPEDTAVYYCAADGLSNVRQMDYWGQGTQVTVSS	low polyreactivity
QVQLVESGGGLVQAGGSLRLSCAASGSTFTKYAMGWYRQEPGKDREFVAGINYSGGSTYYADSVKVRFTISRDNAKNTVYLLMKSLKPEDTAVYYCNARKQNRRGAKYDYWGQGTQVTVSS	high polyreactivity
QVQLVESGGGLVQAGGSLRLSCAASGSTFTLNAMGWYRQAPGKERELVADISWSSGRTYYADSVKGRFTISRDNAKNTVYFQMNSLKPEDTAVYYCATDDFWNVKFYAYYPEFDYWGQGTQVTVSS	low polyreactivity
QVQLVESGGGLVQAGGSLRLSCAASGSTFTLNAMGWYRQAPGKERELVADISWSSGRTYYADSVKGRVTISRDNAKNTVYLQMNSLKPEDTAVYYCATDDFWNVKFYAYYPDFDHWGQGTQVTVSS	low polyreactivity
QVQLVESGGGLVQAGGSLRLSCAASGSTFTLYAMGWYRQAPGKERELVAAISGIGDSTYYADSVKGRFTISRDNAKNTVYLQMNSLKPEDTAVYYCAADGEYRYDWEYESWGQGTKVTVSS	low polyreactivity
QVQLVESGGGLVQAGGSLRLSCAASGSTFTLYAMGWYRQAPGKERELVAAISWSSGSTYYADSVKGRFTISRDNAKNTVYLQMNSLKPEDTAVYYCNARRFGLTQYYYWGQGTQVTVSS	low polyreactivity
QVQLVESGGGLVQAGGSLRLSCAASGSTFTLYAMGWYRQAPGKERELVAAISWSTTSTYYADSVKGRFTISRDNAKNTVYLQMNSLKPEDTAVYYCAAELYRAEYDYWGQGTQVTVSS	high polyreactivity
QVQLVESGGGLVQAGGSLRLSCAASGSTFTNNDMGWYRPAPGKERELVAAITDSDGITYYADSVKGRFTISRDNAKNTVYLQMNSLKPDDSAVYYCAAYYYGSVAQDREYWGQGTQVTVSS	high polyreactivity
QVQLVESGGGLVQAGGSLRLSCAASGSTFTNYAMGWYRPAPGKERELVARITSSGSRTYYADSVKGRFTISRDNAKNTVYLQMNSLKPEDTAVYYCNAETYYLRYGRGYRRFDYWGQGTQVTVSS	high polyreactivity
QVQLVESGGGLVQAGGSLRLSCAASGSTFTPNAMGWYRQAPGKERELVAAIRYTGVGTYYADSVKGRFTISRDNAKNTVYLQMNSLKPEDTAVYYCNRVSRYYNYDYWGQGTQVTVSS	high polyreactivity
QVQLVESGGGLVQAGGSLRLSCAASGSTFTPNAMVWYRQAPGKERELVAAINWSDSSTYYADSVKGRFTISRDNAKNTVYLQMNSLKPEDTAVYYCAAAAQYGQLQVPVYYWGQGTQVTVSS	low polyreactivity
QVQLVESGGGLVQAGGSLRLSCAASGSTFTPYAMGWYRQAPGQEREFVAAITSIGGSTYYADSVKGRITISRDNAKNTVYLQMIRLKPEDTAVYNCAADYSEWTLWNDYWGQCTQVTVSS	high polyreactivity
QVQLVESGGGLVQAGGSLRLSCAASGSTFTPYGMGWYRQAPGKERELVAAITVSGGRTYYADSVKGRFTISRDNAKNTVYLQMNSLKPEDTAVYYCAAVYLRGDGEYDYWGQGTQVTVSS	low polyreactivity
QVQLVESGGGLVQAGGSLRLSCAASGSTFTPYTMGWYRKAPGKETELVAAIRYGGGSTYYADSVKGRFTISRDNAKNTVYLQMNSLKPEDTAVYYCAVDSFYSGGTYDSDGYWGQGTQVTVSS	low polyreactivity
QVQLVESGGGLVQAGGSLRLSCAASGSTFTRNAMGWYRPAPGKERELVAAITSSGGYTYYADSVKGRFTISRDNAKNTVYLQMNSLKPEDTAVYYCAAYPHRPRDRELDHWGQGTQVTVSS	low polyreactivity
QVQLVESGGGLVQAGGSLRLSCAASGSTFTRYVMGWYRQAPGKERELVAAISKRGGSTYYADSVKGRFTISRDNAKHTVYLQMNSLKPVDPAVYYCNRVSRAPFDYWGQGTQVTVSS	high polyreactivity
QVQLVESGGGLVQAGGSLRLSCAASGSTFTRYVMGWYRQAPGKERELVAAISKRGGSTYYADSVKGRFTISRDNAKNTVYLQMNSLKPEDTAVYYCNRVSRAPFDYWGQGTQVTVSS	high polyreactivity
QVQLVESGGGLVQAGGSLRLSCAASGSTFTSNAMGWYRQAPGKEREFVAAISVGGGITYYADSVKGRFTISRDNAKISVYLQMNSLKPEDTAVYYCAADGEYPHSEDFEYWGQGTQVTVSS	low polyreactivity
QVQLVESGGGLVQAGGSLRLSCAASGSTFTSNAMGWYRQAPGKERELVAAISFSDASTYYADSVKGRFTISRDNAKKTVYLQMNRLKPEDTAVYYCNADYPTTAYDYCGQGTQVTVSS	low polyreactivity
QVQLVESGGGLVQAGGSLRLSCAASGSTFTSNAMGWYRQAPGKERELVAAISSGGSTSYADSVKGRFSISRDNAKNTVYLQMNSLKPEDTAVYYCAVGVLYAGYFYRYRYYYWGQGTQVTVSS	high polyreactivity
QVQLVESGGGLVQAGGSLRLSCAASGSTFTSNAMGWYRQAPGKERELVASISGSGGRTDYADSVKGRFTISRDNAKNTVYLQMNSLKPEDTAVYYCNAESRNLYSTQFDYWGQGTQVTVSS	low polyreactivity
